Assay results from patent US11840574B2, “Anti-DR5 antibody and use thereof” (DONG-A ST CO., LTD., priority 2017, dated 2023).

Molecular target: Human DR5 (Homo sapiens, UniProt O14763)
Test: Binding affinity of antibody to human DR5 (BIAcore, CM5 chip)
Conditions: for Ka / Ka(1/Ms): association rate, Human DR5, 1:1 Langmuir binding model; for Kd: equilibrium dissociation constant, Human DR5
Method: In order to measure affinity, human DR5 was coupled to carboxylated dextran biosensor chips (CM5, GE) according to the manufacturer's instruction. Association and dissociation rates were assessed by injecting IgG proteins that were 2-fold serially diluted to 5 nM, 2.5 nM, 1.25 nM, 0.625 nM, 0.313 nM, and 0.156 nM.
Association and dissociation rates were depicted in association and dissociation sensorgrams and calculated using a simple 1:1 Langmuir binding model (BIAcore X100 Evaluation Software, ver. 2.0). The equilibrium dissociation constants (KD), which is the ratio of dissociation constant (Kd) to association constant (Ka), were confirmed to be in the sub-nanomolar range. Measurements of the binding of antibody D0 and DA1 to DA35 of the present disclosure to DR5 are given in Table 11 below (antibody names are given as the names of the clones from which the antibodies were derived). A representative sensorgram for D0 is depicted in FIG. 1.

| Molecule | Ka | Ka(1/Ms) | Kd |
| --- | --- | --- | --- |
| DA5: humanized or deimmunized variant of parental clone D0; CDRs SEQ ID NO 1, 2, 7 / 4, 10, 13 (antibody, V domains shown) VH: EVQLVESGGGLVQPGGSLRLSCAASGFTFSSFNMLWVRQAPGKGLEWVAGIGKSDRYTGYGSAVKGRFTISRDDSKSTAYLQMNSLRAEDTAVYYCVRDAGSGCGSGGWTGACIDTWGQGTLVTVSS VL: DIQMTQSPSSLSASVGDRVTITCSGGDSYAGSYYYGWYQQKPGKAPKTLIYNNNNRPSGVPSRFSGSTSGTDFTLTISSLQPEDFATYYCGSRDSSYVGIFGQGTKVEIK | 1.2e+06 M⁻¹ s⁻¹ | – | – |
| DA14: humanized or deimmunized variant of parental clone D0; CDRs SEQ ID NO 1, 2, 7 / 4, 12, 13 (antibody, V domains shown) VH: EVQLVESGGGLVQPGGSLRLSCAASGFTFSSFNMLWVRQAPGKGLEWVAGIGKSDRYTGYGSAVKGRFTISRDTSKNTAYLQMNSLRAEDTAVYYCSRDAGSGCGSGGWTGACIDTWGQGTLVTVSS VL: DIQMTQSPSSLSASVGDRVTITCSGGDSYAGSYYYGWYQQKPGKAPKTLIYNNNNKAKGVPSRFSGSRSGTDFTLTISSLQPEDFATYYCGSRDSSYVGIFGQGTKVEIK | – | 4.27 × 10^06 1/Ms | 0.0235 nM |
| DA17: humanized or deimmunized variant of parental clone D0; CDRs SEQ ID NO 1, 2, 7 / 4, 12, 13 (antibody, V domains shown) VH: EVQLVESGGGLVQPGGSLRLSCAASGFTFSSFNMLWVRQAPGKGLEWVAGIGKSDRYTGYGSAVKGRFTISRDDSKSTVYLQMNSLRAEDTAVYYCVRDAGSGCGSGGWTGACIDTWGQGTLVTVSS VL: DIQMTQSPSSLSASVGDRVTITCSGGDSYAGSYYYGWYQQKPGKAPKTLIYNNNNKAKGVPSRFSGSRSGTDFTLTISSLQPEDFATYYCGSRDSSYVGIFGQGTKVEIK | – | 2.54 × 10^06 1/Ms | 0.0235 nM |
| DA8: humanized or deimmunized variant of parental clone D0; CDRs SEQ ID NO 1, 2, 7 / 4, 10, 13 (antibody, V domains shown) VH: EVQLVESGGGLVQPGGSLRLSCAASGFTFSSFNMLWVRQAPGKGLEWVAGIGKSDRYTGYGSAVKGRFTISRDDSKSTVYLQMNSLRAEDTAVYYCVRDAGSGCGSGGWTGACIDTWGQGTLVTVSS VL: DIQMTQSPSSLSASVGDRVTITCSGGDSYAGSYYYGWYQQKPGKAPKTLIYNNNNRPSGVPSRFSGSGSGTDFTLTISSLQPEDFATYYCGSRDSSYVGIFGQGTKVEIK | 1.6e+06 M⁻¹ s⁻¹ | – | – |
| DA13: humanized or deimmunized variant of parental clone D0; CDRs SEQ ID NO 1, 2, 7 / 4, 10, 14 (antibody, V domains shown) VH: EVQLVESGGGLVQPGGSLRLSCAASGFTFSSFNMLWVRQAPGKGLEWVAGIGKSDRYTGYGSAVKGRFTISRDTSKNTAYLQMNSLRAEDTAVYYCSRDAGSGCGSGGWTGACIDTWGQGTLVTVSS VL: DIQMTQSPSSLSASVGDRVTITCSGGDSYAGSYYYGWYQQKPGKAPKTLIYNNNNRPSGVPSRFSGSRSGTDFTLTISSLQPEDFATYYCGSRDSAGMGAFGQGTKVEIK | – | 2.62 × 10^06 1/Ms | 0.0112 nM |
| DA16: humanized or deimmunized variant of parental clone D0; CDRs SEQ ID NO 1, 2, 7 / 4, 10, 16 (antibody, V domains shown) VH: EVQLVESGGGLVQPGGSLRLSCAASGFTFSSFNMLWVRQAPGKGLEWVAGIGKSDRYTGYGSAVKGRFTISRDTSKNTAYLQMNSLRAEDTAVYYCSRDAGSGCGSGGWTGACIDTWGQGTLVTVSS VL: DIQMTQSPSSLSASVGDRVTITCSGGDSYAGSYYYGWYQQKPGKAPKTLIYNNNNRPSGVPSRFSGSRSGTDFTLTISSLQPEDFATYYCGSRDSSGAGGFGQGTKVEIK | – | 2.11 × 10^06 1/Ms | 0.0261 nM |
| DA18: humanized or deimmunized variant of parental clone D0; CDRs SEQ ID NO 1, 2, 7 / 4, 10, 15 (antibody, V domains shown) VH: EVQLVESGGGLVQPGGSLRLSCAASGFTFSSFNMLWVRQAPGKGLEWVAGIGKSDRYTGYGSAVKGRFTISRDDSKSTVYLQMNSLRAEDTAVYYCVRDAGSGCGSGGWTGACIDTWGQGTLVTVSS VL: DIQMTQSPSSLSASVGDRVTITCSGGDSYAGSYYYGWYQQKPGKAPKTLIYNNNNRPSGVPSRFSGSRSGTDFTLTISSLQPEDFATYYCGSRDSDGGGRFGQGTKVEIK | – | 1.33 × 10^06 1/Ms | 0.0277 nM |
| DA15: humanized or deimmunized variant of parental clone D0; CDRs SEQ ID NO 1, 2, 7 / 4, 10, 15 (antibody, V domains shown) VH: EVQLVESGGGLVQPGGSLRLSCAASGFTFSSFNMLWVRQAPGKGLEWVAGIGKSDRYTGYGSAVKGRFTISRDTSKNTAYLQMNSLRAEDTAVYYCSRDAGSGCGSGGWTGACIDTWGQGTLVTVSS VL: DIQMTQSPSSLSASVGDRVTITCSGGDSYAGSYYYGWYQQKPGKAPKTLIYNNNNRPSGVPSRFSGSRSGTDFTLTISSLQPEDFATYYCGSRDSDGGGRFGQGTKVEIK | – | 2.56 × 10^06 1/Ms | 0.00109 nM |
| DA9: humanized or deimmunized variant of parental clone D0; CDRs SEQ ID NO 1, 2, 7 / 4, 10, 13 (antibody, V domains shown) VH: EVQLVESGGGLVQPGGSLRLSCAASGFTFSSFNMLWVRQAPGKGLEWVAGIGKSDRYTGYGSAVKGRFTISRDDSKSTLYLQMNSLRAEDTAVYYCVRDAGSGCGSGGWTGACIDTWGQGTLVTVSS VL: DIQMTQSPSSLSASVGDRVTITCSGGDSYAGSYYYGWYQQKPGKAPKTLIYNNNNRPSGVPSRFSGSRSGTDFTLTISSLQPEDFATYYCGSRDSSYVGIFGQGTKVEIK | 5.6e+06 M⁻¹ s⁻¹ | – | – |
| DA10: humanized or deimmunized variant of parental clone D0; CDRs SEQ ID NO 1, 2, 7 / 4, 10, 13 (antibody, V domains shown) VH: EVQLVESGGGLVQPGGSLRLSCAASGFTFSSFNMLWVRQAPGKGLEWVAGIGKSDRYTGYGSAVKGRFTISRDTSKNTAYLQMNSLRAEDTAVYYCSRDAGSGCGSGGWTGACIDTWGQGTLVTVSS VL: DIQMTQSPSSLSASVGDRVTITCSGGDSYAGSYYYGWYQQKPGKAPKTLIYNNNNRPSGVPSRFSGSRSGTDFTLTISSLQPEDFATYYCGSRDSSYVGIFGQGTKVEIK | 2.3e+06 M⁻¹ s⁻¹ | – | 0.007 nM |
| DA12: humanized or deimmunized variant of parental clone D0; CDRs SEQ ID NO 1, 2, 7 / 4, 11, 13 (antibody, V domains shown) VH: EVQLVESGGGLVQPGGSLRLSCAASGFTFSSFNMLWVRQAPGKGLEWVAGIGKSDRYTGYGSAVKGRFTISRDTSKNTAYLQMNSLRAEDTAVYYCSRDAGSGCGSGGWTGACIDTWGQGTLVTVSS VL: DIQMTQSPSSLSASVGDRVTITCSGGDSYAGSYYYGWYQQKPGKAPKTLIYNNNNLMPGVPSRFSGSRSGTDFTLTISSLQPEDFATYYCGSRDSSYVGIFGQGTKVEIK | – | 2.37 × 10^06 1/Ms | 0.0127 nM |
| DA6: humanized or deimmunized variant of parental clone D0; CDRs SEQ ID NO 1, 2, 7 / 4, 10, 13 (antibody, V domains shown) VH: EVQLVESGGGLVQPGGSLRLSCAASGFTFSSFNMLWVRQAPGKGLEWVAGIGKSDRYTGYGSAVKGRFTISRDDSKSTVYLQMNSLRAEDTAVYYCARDAGSGCGSGGWTGACIDTWGQGTLVTVSS VL: DIQMTQSPSSLSASVGDRVTITCSGGDSYAGSYYYGWYQQKPGKAPKTLIYNNNNRPSGVPSRFSGSTSGTDFTLTISSLQPEDFATYYCGSRDSSYVGIFGQGTKVEIK | 7.8e+06 M⁻¹ s⁻¹ | – | – |
| DA7: humanized or deimmunized variant of parental clone D0; CDRs SEQ ID NO 1, 2, 7 / 4, 10, 13 (antibody, V domains shown) VH: EVQLVESGGGLVQPGGSLRLSCAASGFTFSSFNMLWVRQAPGKGLEWVAGIGKSDRYTGYGSAVKGRFTISRDDSKSTVYLQMNSLRAEDTAVYYCSRDAGSGCGSGGWTGACIDTWGQGTLVTVSS VL: DIQMTQSPSSLSASVGDRVTITCSGGDSYAGSYYYGWYQQKPGKAPKTLIYNNNNRPSGVPSRFSGSTSGTDFTLTISSLQPEDFATYYCGSRDSSYVGIFGQGTKVEIK | 1.4e+06 M⁻¹ s⁻¹ | – | 0.0019 nM |
| DA24: humanized or deimmunized variant of parental clone D0; CDRs SEQ ID NO 1, 2, 7 / 4, 10, 13 (antibody, V domains shown) VH: AVTLDESGGGLQTPGGGLSLVCKGSGFTFSSFNMLWVRQAPGKGLEWVAGIGKSDRYTGYGSAVKGRATISRDDGQSTVRLQLNNLRAEDTGTYYCVKDAGSGCGSGGWTGACIDTWGHGTEVIVSS VL: LTQPSSVSANLGGTVEITCSGGDSYAGSYYYGWYQQKAPGSAPVTVIYNNNNRPSNIPSRFSGSTSGSTATLTITGVQAEDEATYYCGSRDSSYVGIFGAGTTLTVL | – | 1.20 × 10^06 1/Ms | 0.00102 nM |
